From patent US11203633B2, “Polynucleotides encoding antibodies or antigen binding fragments thereof that bind pseudomonas perv” (priority 2011, dated 2021)
Substitutions are numbered along the chain they refer to.

Assays:
[1] = tested on: luminescent P. aeruginosa serogroup 05 strain (PAO1.lux); assay: Opsonophagocytic killing (OPK) assay, PAO1.lux; assay type: cell-based, Pseudomonas aeruginosa; details: FIG. 11 A-Q
Protocol: This example describes the evaluation of prioritized human IgG1 antibodies to promote OPK of P. aeruginosa. […] OPK assays were performed as described in (DiGiandomenico, A., et al., Infect Immun 72, 7012-7021 (2004)), with modifications. Briefly, assays were performed in 96-well plates using 0.025 ml of each OPK component; P. aeruginosa strains; diluted baby rabbit serum; differentiated HL-60 cells; and monoclonal antibody. In some OPK assays, luminescent P. aeruginosa strains, which were constructed as described (Choi, K. H., et al., Nat Methods 2, 443-448 (2005)), were used. Luminescent OPK assays were performed as described above but with determination of relative luciferase units (RLUs) using a Perkin Elmer ENVISION Multilabel plate reader (Perkin Elmer).

[2] = tested on: P. aeruginosa strains (PAO1, 33356, 6294, 6077, 6206, PA103A); assay: Acute pneumonia model in mice, survival; assay type: in vivo, Pseudomonas aeruginosa; details: for protection in vivo: strain 6077 (1×10^6 CFU/animal) intranasal, mAbs IP 24 hours prior, 11A6, 3G5, V2L7 5 or 1 mg/kg, 29D2 and V2L2 25 mg/kg, FIG. 13E-G
Protocol: (§1) Antibodies or PBS were administered 24 hours before infection in each model. P. aeruginosa acute pneumonia, keratitis, and thermal injury infection models were performed as described (DiGiandomenico, A., et al., Proc Natl Acad Sci USA 104, 4624-4629 (2007)), with modifications. In the acute pneumonia model, BALB/c mice (The Jackson Laboratory) were infected with P. aeruginosa strains suspended in a 0.05 ml inoculum. In the thermal injury model, CF-1 mice (Charles River) received a 10% total body surface area burn with a metal brand heated to 92° C. for 10 seconds. Animals were infected subcutaneously with P. aeruginosa strain 6077 at the indicated dose. For organ burden experiments, acute pneumonia was induced in mice followed by harvesting of lungs, spleens, and kidneys 24 hours post-infection for determination of CFU.
The in vivo effect of administration of an anti-PcrV antibodies was studied in mice using an acute pneumonia model. Groups of mice were treated with either increasing concentrations of the V2L2 antibody, a positive control anti-PcrV antibody (mAb166), or a negative control (R347), as shown in FIG. 13 (A-B). Groups of mice were also treated with either increasing concentrations of the V2L2 antibody, the PcrV antibody PcrV-02, or a negative control (R347), as shown in FIG. 13 (C-D). Twenty-four hours after treatment, all mice were infected with 5×10^7 CFU (C) Pseudomonas aeruginosa 6294 (06) or (D) PA103A (O11).
Groups of mice were treated with either increasing concentrations of the 11A6, 3G5 or V2L7, the same concentrations of 29D2, 1F3, 1E6, V2L2, LE10, SH3, 4A8, 2H3, or 21F1, increasing concentrations of the 29D2, increasing concentrations of the V2L2, the PcrV antibody PcrV-02, or a negative control (R347), as shown in FIG. 13 (E-H). Mice were injected intraperitoneally (IP) with mAbs 24 hours prior to intranasal infection with Pseudomonas strain 6077 (1×10^6 CFU/animal).

[3] = tested on: P. aeruginosa strains (PAO1, 33356, 6294, 6077, 6206); assay: Acute pneumonia model in mice, organ burden (CFU in lung, spleen, kidneys); assay type: in vivo, Pseudomonas aeruginosa
Protocol: as §1
Organ burden of Pseudomonas-infected mice was also studied in response to administration of V2L2. FIG. 14 (A) Mice were treated with either 1 mg/kg R347 (control), or 1 mg/kg, 0.2 mg/kg, or 0.07 mg/kg of V2L2 and then were infected intranasally with 1.2×10^6 cfu of Pseudomonas 6206. FIG. 14 (B) Mice were also treated with either 15 mg/kg R347 (negative control); 15.0 mg/kg, 5.0 mg/kg, or 1.0 mg/kg mAb166 (positive control); or 5.0 mg/kg, 1.0 mg/kg, or 0.2 mg/kg V2L2 and then were infected intranasally with 5.5×10^6 cfu of Pseudomonas 6206.
The in vivo effect of combination administration of anti-Psl and anti-PcrV binding domains was further studied in mice using the antibodies V2L2 and WapR-004 (RAD). Groups of mice were treated with R347 (2.1 mg/kg—negative control), V2L2 (0.1 mg/kg), W4-RAD (0.5 mg/kg), or V2L2/W4 combination (either 0.1, 0.5, 1.0 or 2.0 mg/kg each). Twenty-four hours post-administration of antibody, all mice were infected with an inoculum containing 5.25×10^5 cfu 6206 (O11-ExoU+). Twenty-four hours post infection, lungs, spleens, and kidneys were harvested, homogenized, and plated for colony forming unit (CFU) identification per gram of tissue.

[4] = tested on: P. aeruginosa (6077 exoU+; 6206) lysis of rabbit red blood cells; assay: Rabbit red blood cell (RBC) lysis inhibition assay; assay type: cell-based, Pseudomonas aeruginosa; details: for prevention of RBC lysis: strain 6077, FIG. 12D-E
Protocol: Percent inhibition of cytotoxicity analysis was analysed for the parental V2L2 mAb, mAb166 (positive control) and R347 (negative control), where the antibodies were administered to cultured broncho-epithelial cell line A549 combined with log-phase P. aeruginosa strain 6077 (exoU+) at a MOI of approximately 10. A549 lysis was assayed by measuring released lactate dehydrogenase (LDH) activity and lysis in the presence of mAbs was compared to wells without mAb to determine percent inhibition. The V2L2 mAb, mAb166 (positive control) and R347 (negative control) were evaluated for their ability to prevent lysis of RBCs, where the antibodies were mixed with log-phase P. aeruginosa 6077 (exoU^+) and washed rabbit red blood cells (RBCs) and incubated for 2 hours at 37°. Intact RBCs were pelleted and the extent of lysis determined by measuring the OD405 of the cell-free supernatant. Lysis in the presence of anti-PcrV mAbs was compared to wells without mAb to determine percent inhibition. The positive control antibody, mAb166, is a previously characterized anti-PcrV antibody (J Infect Dis. 186: 64-73 (2002), Crit Care Med. 40: 2320-2326 (2012)).

[5] = tested on: P. aeruginosa strains 6206 and 6294; assay: Acute pneumonia model in mice, histological examination of lung tissue; assay type: in vivo, Pseudomonas aeruginosa
[6] = strain 6206 intranasal, V2L2 0.07-5 mg/kg, FIG. 14A-B
[7] = Table 5, 6206 5.25×10^5 cfu, R347 2.1 mg/kg, V2L2 0.1 mg/kg, WapR-004 0.5 mg/kg
[8] = Table 6A, strain 6294 1.33×10^7 CFU, 0.2 mg/kg (combination 0.1 mg/kg ea)
[9] = Table 6B, strain 6294 1.7×10^7 CFU, 0.2 mg/kg (combination 0.1 mg/kg ea)
[10] = Table 7, strain 6206 9.25×10^5 CFU, 0.2 mg/kg (combination 0.1 mg/kg ea)

B1: Psl0225: lead optimized anti-Psl clone; VH SEQ ID NO:290, VL SEQ ID NO:291 (antibody, V domains shown)
VH: QVQLQESGPGLVKPSETLSLTCTVSGGSISPYYWTWIRQPPGKGLELIGYIHSSGYTDYNPSLKSRVTISGDTSKKQFSLKLSSVTAADTAVYYCARAMDIEPHALDIWGQGTMVTVSS
VL: DIQLTQSPSSLSASVGDRVTITCRASQSIRSHLNWYQQKPGKAPKLLIYGASNLQSGVPSRFSGSGSGTDFTLTISSLQPEDFATYYCQQSDDGFPNFGGGTKVEIK
modifications: Psl0225-Germline VH; Psl0225-Germline VL
- OPK activity of lead optimized anti-Psl mAbs [1]: enhanced OPK activity

B2: Psl0337: lead optimized anti-Psl clone; VH SEQ ID NO:295, VL SEQ ID NO:296 (antibody, V domains shown)
VH: B1 VH with M99D, D100W, I101D, E102H, P103K
VL: B1 VL with Q90D, D92S, D93S, G94W, F95P, P96L, N97T
modifications: Psl0337-Germline VH; Psl0337-Germline VL
- OPK activity of lead optimized anti-Psl mAbs [1]: enhanced OPK activity

B3: Psl0588: lead optimized anti-Psl clone; VH SEQ ID NO:292, VL SEQ ID NO:293 (antibody, V domains shown)
VH: B1 VH with M99D, I101P, E102F, H104G, A105Y
VL: B1 VL with D93T, G94F, F95P, P96L, N97K
modifications: Psl0588-Germline VH
- OPK activity of lead optimized anti-Psl mAbs [1]: enhanced OPK activity

B4: V2L2: anti-PcrV monoclonal antibody; VH SEQ ID NO:216, VL SEQ ID NO:217 (antibody, V domains shown)
VH: EMQLLESGGGLVQPGGSLRLSCAASGFTFSSYAMNWVRQAPGEGLEWVSAITISGITAYYTDSVKGRFTISRDNSKNTLYLQMNSLRAGDTAVYYCAKEEFLPGTHYYYGMDVWGQGTTVTVSS
VL: AIQMTQSPSSLSASVGDRVTITCRASQGIRNDLGWYQQKPGKAPKLVIYSASTLQSGVPSRFSGSGSGTDFTLSISSLQPDDFATYYCLQDYNYPWTFGQGTKVEIK
modifications: V2L2 VH; V2L2 VL
- survival ([2]; 6206, Bs3-V2L2 0.28 mg/kg, V2L2 0.2 mg/kg, monitored 120 hours, FIG. 21A): survived
- protection against additional strains ([2]; 6294 and PA103A, 0.04-5 mg/kg, FIG. 13I): protects against additional Pseudomonas strains (i.e., 6294 and PA103A)
- survival ([2]; increasing concentrations 24 hours before infection, strains 6077, 6294, PA103A, FIG. 13A-D): dose-dependent effect on improved survival even out to 168 hours post-infection
- protection compared to mAb166 ([2]; similar doses, strains 6077 and 6294, FIG. 13A-B): significantly more potent protection than mAb166 at similar doses
- protection in vivo [2]: provides protection in vivo
- organ burden ([3]; 6206 (O11-ExoU+) 5.25×10^5 cfu, V2L2 0.1 mg/kg, W4-RAD 0.5 mg/kg, FIG. 15): effective in lowering organ burden
- reduction in organ CFU compared to mAb166 ([3]; strain 6206, similar doses, FIG. 14B): significantly greater reduction in organ CFU than mAb166 at similar doses
- clearance in the kidney [3, 6]: little effect on clearance in the kidney
- dissemination to lung and spleen [3, 6]: greatly reduced dissemination to both the lung and spleen in a dose-dependent manner
- potency in prevention of RBC lysis, V2L2 vs 29D2 ([4]; FIG. 12F): more potent in prevention of RBC lysis than the 29D2
- Inflammatory Infiltrate [5, 7]: PMN 3+
- Involved Lung Surface Area [5, 7]: 55%
- Overall Impression [5, 7]: Broncho interstitial pneumonia
- Overall Impression ([5]; Table 6A, BALB/c mice, strain 6294 1.33×10^7 CFU, 0.2 mg/kg (combination 0.1 mg/kg ea)): Broncho interstitial pneumonia
- Bacteria [5, 8]: Neg-1+
- Hemorrhage (extent) [5, 8]: Extensive
- Inflammatory Infiltrate [5, 8]: PMN 3+
- Involved Lung Surface Area [5, 8]: (57%), mild epithelial injury,
- Overall Impression ([5]; Table 6B, BALB/c mice, strain 6294 1.7×10^7 CFU, 0.2 mg/kg (combination 0.1 mg/kg ea)): Broncho interstitial pneumonia
- Bacteria [5, 9]: Neg
- Inflammatory Infiltrate [5, 9]: PMN 2+
- Involved Lung Surface Area [5, 9]: (30%), mild epithelial injury,
- Overall Impression ([5]; Table 7, BALB/c mice, strain 6206 9.25×10^5 CFU, 0.2 mg/kg (combination 0.1 mg/kg ea)): Broncho interstitial pneumonia
- Inflammatory Infiltrate [5, 10]: PMN 2-3+
- Involved Lung Surface Area [5, 10]: (40%), mild epithelial injury,

B5: V2L2-GL: V2L2-germlined mAb (antibody, V domains shown)
VH: B4 VH with M2V, E43K, G89E
VL: B4 VL
modifications: V2L2-GL VH; V2L2-MD and V2L2-GL VL
notes: V2L2-germlined mAb
- prevention of RBC lysis [4]: demonstrated prevention of RBC lysis

B6: 29D2: anti-PcrV mAb, epitope class 3 (antibody, V domains shown)
VH: EVQLLESGGGLVQPGGSLRLSCAASGFTFSSYAMSWVRQAPGKGLEWVSAISGSGYSTYYADSVKGRFTMSRDNSKNTLYLQMNSLRAEDTAVYYCAAEYSISSNYYYGMDVWGQGTTVTVSS
VL: DIQLTQSPSFLSASVGDRVTITCWASQGISSYLAWYQQKPGKAPKLLIYAASTLQSGVPSRFSGSGSGTEFTLTISSLQPEDFATYYCQQLNSSPLTFGGGTKVEIK
modifications: 29D2 VH; 29D2 VL
- protection in vivo [2]: provides protection in vivo
- prevention of RBC lysis [4]: demonstrated prevention of RBC lysis
